Measured values as given in article doi:10.1101/2025.10.22.683813 (bioRxiv, 2025).

Molecular target: the molecule itself
Assay: SEC

B1: NC-4 nucleocapsid subunit (other)
chain: MGNARTRRRERRAEKQAQWKAANAGAGAGAMATPHFDYNASVVSKGLANLSLELRKPVSFDIITADTLEQAIERAGTKHGNKGWEAALSAIEMANLYKSLRGTEHHHHLHGSSIEIYEGKLTAEGLRFGIVASRFNHTLVDRLVEGAIDCIVRHGGRGEDITLVRVPGAWEIPVAADELARKEDIDAVIAFGDLIRG
- binding result: binds
